This note sets out measurements from patent publication US20200392233A1 (ACCELERON PHARMA, published 2020).

Substitutions are numbered along the chain they refer to.

Experiment [1] has as its target T1, rat Alk7-Fc comprising protein (rat, UniProt P70539 26-113).
T1 construct: not shown: Fc portion and any linker of the Alk7-Fc comprising protein are not described
T1 sequence: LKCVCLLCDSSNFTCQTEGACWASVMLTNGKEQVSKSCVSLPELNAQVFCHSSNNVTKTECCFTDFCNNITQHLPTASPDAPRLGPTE
Kind of experiment: SPR (Biacore T100/T200), antibody captured on FAB chip, Alk7-Fc analyte, 1:1 fit. The protocol: (§1) Experiments were performed using a Biacore T100/T200 biosensor (Biacore/GE Healthcare) at 25 and 37° C. ALK7 antibodies were captured on custom made FAB chip. A concentration series of ALK7-Fc comprising protein was injected over the flow cells at a flow rate of […]. To obtain kinetic rate constants the corrected data were fit to a 1:1 interaction model using BiaEvaluation software (GE Healthcare). The equilibrium binding constant KD was determined by the ratio of binding rate constants kd/ka.
On the technique in general: In SPR one partner is held on a chip, and binding of the other changes the refractive index at the surface.

The target of experiment [2] is T2, ALK7-Fc comprising protein.
T2 construct: It is probably the human protein
T2 sequence (Q8NER5 22-113): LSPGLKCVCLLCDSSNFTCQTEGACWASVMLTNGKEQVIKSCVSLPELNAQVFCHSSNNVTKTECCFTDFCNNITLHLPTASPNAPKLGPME
Description: SPR (Biacore T100/T200) at 25 °C, antibody captured on FAB chip, ALK7-Fc analyte, 1:1 fit. Here is the method: as §1

B1: J01 (antibody, V domains shown)
VH: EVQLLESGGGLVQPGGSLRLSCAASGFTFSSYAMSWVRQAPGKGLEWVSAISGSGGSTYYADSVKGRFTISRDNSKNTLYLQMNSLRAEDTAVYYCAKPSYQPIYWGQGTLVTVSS
VL: DIQMTQSPSSVSASVGDRVTITCRASQGISSWLAWYQQKPGKAPKLLIYAASSLQSGVPSRFSGSGSGTDFTLTISSLQPEDFATYYCQQAASYPLTFGGGTKVEIK
notes: also called antibody J01
On to B1, for which the koff (in general, the first-order rate constant of dissociation) in experiment [1] worked out at 0.000478 s⁻¹.

B2: K02 (antibody, V domains shown)
VH: QVQLVQSGAEVKKPGSSVKVSCKASGGTFSSSAIGWVRQAPGQGLEWMGGIWPIFGTALYAQKFQGRVTITADESTSTAYMELSSLRSEDTAVYYCARDPREYIHVFDIWGQGTMVTVSS
VL: B1 VL with V11L, G28S, W32Y, A34N, A50G, A92Y, Y94F, L96W, T102I
notes: also called mAb K02; KO2
As to B2, in experiment [2], the dissociation constant (Kd) – broadly, the concentration at which binding is half-saturated – is 12400 pM; the koff was found to be 0.000291 s⁻¹; the kon (in general, a measure of how fast the partners come together) was 23500 M⁻¹ s⁻¹.

B3: J02 (antibody, V domains shown)
VH: EVQLLESGGGLVQPGGSLRLSCAASGFTFSVYAMSWVRQAPGKGLEWVSAISGSGDSTVYADSVKGRFTISRDNSKNTLYLQMNSLRAEDTAVYYCAKPSYQPIYWGQGTLVTVSS
VL: B1 VL
notes: also called mAb J02; ALK7 mAb J02
As for B3, in experiment [2], the affinity, expressed as Kd, was 5330 pM; the koff turned out to be 0.000126 s⁻¹; the kon stood at 23600 M⁻¹ s⁻¹.

B4: G05 (antibody, V domains shown)
VH: QVQLVQSGAEVKKPGSSVKVSCKASGGTFSGQAISWVRQAPGQGLEWMGGIIPSFGTARYAQKFQGRVTITADESTSTAYMELSSLRSEDTAVYYCARTPYYDSSGYLDVWGQGTMVTVSS
VL: DIQMTQSPSSLSASVGDRVTITCQASHDIDNYLNWYQQKPGKAPKLLIYYASNLKTGVPSRFSGSGSGTDFTFTISSLQPEDIATYYCQQSRASPPTFGGGTKVEIK
notes: also called mAb G05; ALK7 mAb G05
Turning to B4, in experiment [2], the dissociation constant (Kd) was found to be 870 pM, the koff was determined as 2.59e-05 s⁻¹ and the kon amounted to 29900 M⁻¹ s⁻¹.

B5: C03 (antibody, V domains shown)
VH: QLQLQESGPGLVKPSETLSLTCTVSGGSISSSAYYWAWIRQPPGKGLEWIGSIYLSGSTTYNPSLKSRVTISVDTSKNQFSLKLSSVTAADTAVYYCARDGRYQSRSPDYYYGMDVWGQGTTVTVSS
VL: EIVLTQSPGTLSLSPGERATLSCKASQSVSSSYLAWYQQKPGQAPRLLIYGAFSRANGIPDRFSGSGSGTDFTLTISRLEPEDFAVYYCQQLVSYPFTFGGGTKVEIK
notes: also called mAb C03; ALK7 mAb C03
For B5, in experiment [2], the Kd was determined as 330 pM, the koff stood at 1.27e-05 s⁻¹ and the kon was 38300 M⁻¹ s⁻¹.

B6: L02 (antibody, V domains shown)
VH: QVQLVQSGAEVKKPGASVKVSCKASGYTFAGYNMHWVRQAPGQGLEWVGIINPNSGWTNYAQKFQGRVTMTRDTSVSAAYMELSRLRSDDTAVYYCARDPVGARYEVFDYWGQGTLVTVSS
VL: EIVMTQSPATLSVSPGERATLSCRASQSVSSALAWYQQKPGQAPRLLIYSAFTRASGIPARFSGSGSGTEFTLTISSLQSEDFAVYYCQQAWAFPLTFGGGTKVEIK
notes: also called mAb L02
In the case of B6, in experiment [2], the Kd was found to be 440 pM, the koff came to 1.21e-05 s⁻¹ and the association rate constant (kon) is 27400 M⁻¹ s⁻¹.
